Data taken from publication PMC6504948.

Biological target: CD19 on CD19-positive tumor cells (Nalm6, Raji) (human (endogenous in Nalm6 and Raji)) (UniProt P15391)
Chain of UniProt P15391 (P15391 20-556): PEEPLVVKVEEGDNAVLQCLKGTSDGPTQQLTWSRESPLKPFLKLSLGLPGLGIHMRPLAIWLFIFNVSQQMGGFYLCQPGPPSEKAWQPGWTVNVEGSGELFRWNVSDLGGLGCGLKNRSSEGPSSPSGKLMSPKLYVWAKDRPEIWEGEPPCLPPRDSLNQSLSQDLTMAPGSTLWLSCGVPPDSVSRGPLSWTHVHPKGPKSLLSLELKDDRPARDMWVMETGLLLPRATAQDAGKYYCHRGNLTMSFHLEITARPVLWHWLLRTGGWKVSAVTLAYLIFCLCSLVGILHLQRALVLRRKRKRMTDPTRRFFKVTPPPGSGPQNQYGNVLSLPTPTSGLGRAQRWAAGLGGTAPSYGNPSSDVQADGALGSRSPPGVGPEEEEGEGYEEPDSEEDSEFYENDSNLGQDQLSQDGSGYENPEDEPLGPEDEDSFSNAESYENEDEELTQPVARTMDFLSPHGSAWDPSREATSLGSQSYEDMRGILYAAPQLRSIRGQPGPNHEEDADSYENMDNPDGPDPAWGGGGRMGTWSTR

- conversion of transduced primary T cells into a CD69+/CD25+ phenotype after overnight co-culture with Nalm6 cells: 50%
Substance: γ-TRuC (CD19-specific T cell receptor fusion construct: FMC63 scFv fused to full-length human CD3γ) (from UniProt P09693 23-182)
